In the supplement of paper PMC9112550, “Optimization of the antimicrobial peptide Bac7 by deep mutational scanning” (BMC Biology, 2022):

system: Escherichia coli TOP10; experiment: shrunken log2 fold change of peptide-encoding DNA abundance (4.5 h post-induction vs induction); higher = less antimicrobial activity (less host growth inhibition); conditions: time post-induction: 4.5 h; library: site-saturation at positions 5, 18, 19, 20
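Note: peptides expressed intracellularly from a pBAD plasmid library in pooled LB shake-flask culture, induced with 0.3% L-arabinose, DNA abundance read by NGS, three biological replicates, DESeq2 with apeglm shrinkage.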

Going from RRIRFRPPRLPRPRPRPDTKPRP to RRIRIRPPRLPRPRPRPWIFPRP, the “shrunken log2 fold change” value falls from -0.123 to -0.498.

Compared with RRIRRRPPRLPRPRPRPATPPRP, RRIRKRPPRLPRPRPRPMKWPRP is lower in “shrunken log2 fold change” value: 0.783 for the first, -0.0374 for the second.

RRIRERPPRLPRPRPRPMPWPRP and RRIRGRPPRLPRPRPRPIMGPRP are within 0.2 log units of each other in “shrunken log2 fold change” value: 0.0819 for the first, 0.0308 for the second.

Going from RRIRMRPPRLPRPRPRPGKWPRP to RRIRARPPRLPRPRPRPECLPRP, the “shrunken log2 fold change” value rises from 0.204 to 0.909.

RRIRSRPPRLPRPRPRPQWGPRP and RRIRTRPPRLPRPRPRPLAHPRP are within 0.2 log units of each other in “shrunken log2 fold change” value: -0.0633 for the first, -0.256 for the second.

RRIRYRPPRLPRPRPRPTEYPRP and RRIRIRPPRLPRPRPRPIDAPRP are within 0.2 log units of each other in “shrunken log2 fold change” value: -0.204 for the first, -0.215 for the second.

Compared with RRIRHRPPRLPRPRPRPSWIPRP, RRIRMRPPRLPRPRPRPVGPPRP is higher in “shrunken log2 fold change” value: -0.171 for the first, 0.67 for the second.

RRIRCRPPRLPRPRPRPVGNPRP and RRIRYRPPRLPRPRPRPVKRPRP are within 0.2 log units of each other in “shrunken log2 fold change” value: -0.0972 for the first, -0.00146 for the second.

Going from RRIRIRPPRLPRPRPRPIPCPRP to RRIRWRPPRLPRPRPRPDMQPRP, the “shrunken log2 fold change” value rises from -0.00867 to 0.337.

RRIRKRPPRLPRPRPRPRVYPRP and RRIRERPPRLPRPRPRPPESPRP are within 0.2 log units of each other in “shrunken log2 fold change” value: 0.307 for the first, 0.16 for the second.

Going from RRIRCRPPRLPRPRPRPVVRPRP to RRIRHRPPRLPRPRPRPMAYPRP, the “shrunken log2 fold change” value rises from -0.356 to -0.0524.

RRIRIRPPRLPRPRPRPKHWPRP and RRIRSRPPRLPRPRPRPGAKPRP are within 0.2 log units of each other in “shrunken log2 fold change” value: 0.357 for the first, 0.513 for the second.

RRIRYRPPRLPRPRPRPHFEPRP and RRIRDRPPRLPRPRPRPPNKPRP are within 0.2 log units of each other in “shrunken log2 fold change” value: -0.115 for the first, 0.0523 for the second.

RRIRIRPPRLPRPRPRPMMTPRP and RRIRTRPPRLPRPRPRPWMQPRP are within 0.2 log units of each other in “shrunken log2 fold change” value: -0.115 for the first, -0.0757 for the second.

Compared with RRIRFRPPRLPRPRPRPVEYPRP, RRIRFRPPRLPRPRPRPPKAPRP is higher in “shrunken log2 fold change” value: -0.109 for the first, 0.332 for the second.

RRIRTRPPRLPRPRPRPDGSPRP and RRIRSRPPRLPRPRPRPAREPRP are within 0.2 log units of each other in “shrunken log2 fold change” value: 0.0485 for the first, 0.0982 for the second.

RRIRSRPPRLPRPRPRPSMEPRP and RRIRFRPPRLPRPRPRPMACPRP are within 0.2 log units of each other in “shrunken log2 fold change” value: -0.0673 for the first, -0.00146 for the second.

Compared with RRIRQRPPRLPRPRPRPHDNPRP, RRIRDRPPRLPRPRPRPNRTPRP is lower in “shrunken log2 fold change” value: 1.99 for the first, -0.477 for the second.

Compared with RRIRVRPPRLPRPRPRPVIVPRP, RRIRYRPPRLPRPRPRPQSVPRP is higher in “shrunken log2 fold change” value: -0.349 for the first, -0.11 for the second.

Compared with RRIRKRPPRLPRPRPRPNDEPRP, RRIRVRPPRLPRPRPRPSIFPRP is lower in “shrunken log2 fold change” value: 0.179 for the first, -0.606 for the second.

RRIRMRPPRLPRPRPRPQTIPRP and RRIRYRPPRLPRPRPRPGESPRP are within 0.2 log units of each other in “shrunken log2 fold change” value: 0.414 for the first, 0.224 for the second.

RRIRTRPPRLPRPRPRPHGQPRP and RRIRWRPPRLPRPRPRPWMWPRP are within 0.2 log units of each other in “shrunken log2 fold change” value: -0.0788 for the first, 0.0359 for the second.

First: RRIRSRPPRLPRPRPRPEGPPRP
Second: RRIRARPPRLPRPRPRPWNEPRP
The “shrunken log2 fold change” value of the first is higher: 0.114 for the first, -0.19 for the second.

First: RRIRVRPPRLPRPRPRPPIQPRP
Second: RRIRTRPPRLPRPRPRPWSQPRP
The “shrunken log2 fold change” value of the first is lower: -0.245 for the first, 0.0431 for the second.

RRIRKRPPRLPRPRPRPFDTPRP and RRIRTRPPRLPRPRPRPNWSPRP are within 0.2 log units of each other in “shrunken log2 fold change” value: -0.0262 for the first, 0.0464 for the second.

Compared with RRIRYRPPRLPRPRPRPEACPRP, RRIRERPPRLPRPRPRPGARPRP is higher in “shrunken log2 fold change” value: -0.0328 for the first, 0.255 for the second.

Going from RRIRVRPPRLPRPRPRPNTVPRP to RRIRYRPPRLPRPRPRPPQPPRP, the “shrunken log2 fold change” value rises from -0.0689 to 0.436.

RRIRPRPPRLPRPRPRPQLQPRP and RRIRRRPPRLPRPRPRPSEYPRP are within 0.2 log units of each other in “shrunken log2 fold change” value: -0.167 for the first, -0.192 for the second.

Compared with RRIRVRPPRLPRPRPRPSVPPRP, RRIRIRPPRLPRPRPRPIDRPRP is higher in “shrunken log2 fold change” value: -0.165 for the first, 0.203 for the second.

Compared with RRIRERPPRLPRPRPRPYWMPRP, RRIRARPPRLPRPRPRPPGYPRP is higher in “shrunken log2 fold change” value: -0.438 for the first, 0.365 for the second.

First: RRIRSRPPRLPRPRPRPEYGPRP
Second: RRIRARPPRLPRPRPRPFCWPRP
The “shrunken log2 fold change” value of the first is lower: -0.346 for the first, 0.401 for the second.

First: RRIRWRPPRLPRPRPRPFPNPRP
Second: RRIRERPPRLPRPRPRPKCIPRP
The “shrunken log2 fold change” value of the first is higher: -0.138 for the first, -0.464 for the second.

RRIRWRPPRLPRPRPRPHGQPRP and RRIRLRPPRLPRPRPRPPSNPRP are within 0.2 log units of each other in “shrunken log2 fold change” value: -0.0861 for the first, 0.00215 for the second.

First: RRIRKRPPRLPRPRPRPMIVPRP
Second: RRIRVRPPRLPRPRPRPVLLPRP
The “shrunken log2 fold change” value of the first is higher: 0.00271 for the first, -0.35 for the second.

RRIRPRPPRLPRPRPRPKEWPRP and RRIRIRPPRLPRPRPRPRLDPRP are within 0.2 log units of each other in “shrunken log2 fold change” value: -0.00152 for the first, 0.1 for the second.

Going from RRIRNRPPRLPRPRPRPLWLPRP to RRIRRRPPRLPRPRPRPHPVPRP, the “shrunken log2 fold change” value rises from -0.181 to 0.175.

RRIRWRPPRLPRPRPRPCTWPRP and RRIRKRPPRLPRPRPRPPYNPRP are within 0.2 log units of each other in “shrunken log2 fold change” value: -0.217 for the first, -0.149 for the second.

First: RRIRWRPPRLPRPRPRPYPHPRP
Second: RRIRYRPPRLPRPRPRPTFTPRP
The “shrunken log2 fold change” value of the first is higher: -0.184 for the first, -0.566 for the second.

Going from RRIRGRPPRLPRPRPRPGIPPRP to RRIRSRPPRLPRPRPRPWNDPRP, the “shrunken log2 fold change” value falls from 0.351 to -0.303.

RRIRPRPPRLPRPRPRPASFPRP and RRIRCRPPRLPRPRPRPMPFPRP are within 0.2 log units of each other in “shrunken log2 fold change” value: 0.0681 for the first, -0.0545 for the second.

Compared with RRIRSRPPRLPRPRPRPQKHPRP, RRIRNRPPRLPRPRPRPPNAPRP is higher in “shrunken log2 fold change” value: -0.106 for the first, 0.313 for the second.

RRIRIRPPRLPRPRPRPAKWPRP and RRIRERPPRLPRPRPRPMKWPRP are within 0.2 log units of each other in “shrunken log2 fold change” value: 0.109 for the first, -0.0404 for the second.

First: RRIRLRPPRLPRPRPRPVCPPRP
Second: RRIRERPPRLPRPRPRPDLSPRP
The “shrunken log2 fold change” value of the first is higher: 0.149 for the first, -0.349 for the second.

RRIRIRPPRLPRPRPRPCVGPRP and RRIRARPPRLPRPRPRPCYPPRP are within 0.2 log units of each other in “shrunken log2 fold change” value: -0.164 for the first, -0.209 for the second.

Compared with RRIRPRPPRLPRPRPRPANVPRP, RRIRWRPPRLPRPRPRPEYKPRP is higher in “shrunken log2 fold change” value: -0.122 for the first, 0.472 for the second.

RRIRQRPPRLPRPRPRPEMEPRP and RRIRARPPRLPRPRPRPCHCPRP are within 0.2 log units of each other in “shrunken log2 fold change” value: 0.0171 for the first, 0.164 for the second.

Going from RRIRRRPPRLPRPRPRPIRTPRP to RRIRLRPPRLPRPRPRPKDHPRP, the “shrunken log2 fold change” value falls from 0.4 to -0.123.

RRIRCRPPRLPRPRPRPDWCPRP and RRIRRRPPRLPRPRPRPDKFPRP are within 0.2 log units of each other in “shrunken log2 fold change” value: 0.27 for the first, 0.0835 for the second.

Compared with RRIRKRPPRLPRPRPRPCICPRP, RRIRDRPPRLPRPRPRPKWPPRP is higher in “shrunken log2 fold change” value: -0.14 for the first, 0.466 for the second.

RRIRYRPPRLPRPRPRPHKGPRP and RRIRERPPRLPRPRPRPDKCPRP are within 0.2 log units of each other in “shrunken log2 fold change” value: -0.29 for the first, -0.121 for the second.

First: RRIRPRPPRLPRPRPRPHRTPRP
Second: RRIRRRPPRLPRPRPRPTPVPRP
The “shrunken log2 fold change” value of the first is lower: -0.0599 for the first, 0.969 for the second.

First: RRIRSRPPRLPRPRPRPFQNPRP
Second: RRIRCRPPRLPRPRPRPQAMPRP
The “shrunken log2 fold change” value of the first is lower: -0.3 for the first, 0.189 for the second.

Compared with RRIRSRPPRLPRPRPRPHKVPRP, RRIRVRPPRLPRPRPRPPWMPRP is higher in “shrunken log2 fold change” value: -0.259 for the first, -0.0435 for the second.

Going from RRIRDRPPRLPRPRPRPAPRPRP to RRIRWRPPRLPRPRPRPWRLPRP, the “shrunken log2 fold change” value falls from 1.07 to -0.172.

In the case of RRIRERPPRLPRPRPRPYQQPRP, the “shrunken log2 fold change” value is reported as -0.228.
